From the supplement of paper PMC7877785
± gives the uncertainty stated by the source.

Experiment: self-splicing fitness, log relative to wild type (ln ratio); higher = more splicing; Tetrahymena group I intron in knt gene, E. coli kanamycin selection, DiMSum; sequences stand for … in CUCUCU…GGAGGGAAAAGUUAUCAGGCAUGCACCUGGUAGCUAGUCUUUAAACCAAUAGAUUGCAUCGGUUUAAAAGGCAAGACCGUCAAAUUGCGGGAAAGGGGUCAACAGCCGUUCAGUACCAAGUCUCAGGGGAAACUUUGAGAUGGCCUUGCAAAGGGUAUGGUAAUAAGCUGACGGACAUGGUCCUAACCACGCAGCCAAGUCCUAAGUCAACAGAUCUUCUGUUGAUAUGGAUGCAGUUCACAGACUAAAUGUCGGUCGGGGAAGAUGUAUUCUUCUCAUAAGAUAUAGUCGGACCUCUCCUUAAUGGGAGCUAGCGGAUGAAGUGAUGCAACACUGGAGCCGCUGGGAACUAAUUUGUAUGCGAAAGUAUAUUGAUUAGUUUUGGAGUACUCGUGGUCG
Summary of the method: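 DiMSum derived fitness as the error-weighted combination of fold changes across replicates, kanamycin versus no kanamycin, normalised to wild type. E. coli BL21(DE3) held the library, which randomised all eight P1ex-region intron nucleotides within the knt kanamycin-resistance gene on pET-22b(+). Six replicate transformations grew overnight at 37°C or 30°C on LB agar with or without 25 μg/mL kanamycin, also containing 100 μg/mL carbenicillin, 50 μM IPTG and 0.2% rhamnose, and pooled colonies were amplicon-sequenced on an Illumina HiSeq 2500.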

Sequence | self-splicing fitness (ln) (30 °C) | self-splicing fitness (ln) (37 °C)
CGUGAGCAAUAUUACGGAGU | -3.12 ± 0.23 | -1.14 ± 0.4
CUCGAGCAAUAUUACGGUCU | -3.02 ± 0.15 | -2.11 ± 0.17
CCAGAGCAAUAUUACGCAUC | -2.56 ± 0.28 | -1.99 ± 0.31
GUUAAGCAAUAUUACGCCAC | -3.63 ± 0.4 | -3.27 ± 0.47
CCUUAGCAAUAUUACGUAGU | -2.48 ± 0.095 | -0.664 ± 0.098
CGUGAGCAAUAUUACGCCUG | -1.76 ± 0.26 | -0.852 ± 0.36
GGGCAGCAAUAUUACGUGGC | -3.12 ± 0.25 | -2.21 ± 0.26
UUAUAGCAAUAUUACGAUAU | -1.97 ± 0.13 | -0.578 ± 0.17
GCAGAGCAAUAUUACGAGGG | -3.47 ± 0.22 | -2.2 ± 0.24
AUCCAGCAAUAUUACGCCUU | -0.818 ± 0.067 | -0.214 ± 0.082
CUCUAGCAAUAUUACGUAGU | -4.1 ± 0.26 | -4.45 ± 0.36
UGCUAGCAAUAUUACGUUUG | -1.48 ± 0.074 | -0.163 ± 0.092
UAUAAGCAAUAUUACGGUGG | -1.67 ± 0.13 | -0.746 ± 0.13
UAUGAGCAAUAUUACGAGAU |  | -2.19 ± 0.3
GCGCAGCAAUAUUACGCUCU | -3.21 ± 0.28 | -1.29 ± 0.23
AAUCAGCAAUAUUACGCAGA | -1.04 ± 0.068 | -0.32 ± 0.07
GUGGAGCAAUAUUACGCUAU | -2.85 ± 0.25 | 
AGUUAGCAAUAUUACGACGA | -0.101 ± 0.18 | -0.368 ± 0.14
CUGCAGCAAUAUUACGUGGA | -2.92 ± 0.16 | -3.04 ± 0.2
AGUUAGCAAUAUUACGCGGU | -2.58 ± 0.14 | -1.93 ± 0.18
GAAAAGCAAUAUUACGUUGA | -2.87 ± 0.15 | -1.24 ± 0.1
GGUAAGCAAUAUUACGUAAC | -1.86 ± 0.13 | -0.278 ± 0.15
CUUAAGCAAUAUUACGCUCG | -2.09 ± 0.22 | 0.521 ± 0.29
GGCAAGCAAUAUUACGGUAU | -1.17 ± 0.068 | -0.119 ± 0.077
GGCGAGCAAUAUUACGUAAC | -2.52 ± 0.19 | -0.781 ± 0.13
GUGGAGCAAUAUUACGGAGG | -2.41 ± 0.28 | -0.95 ± 0.28

Sequence | self-splicing fitness (ln) (30 °C) | self-splicing fitness (ln) (37 °C)
UCAUAGCAAUAUUACGCUGA | -2.32 ± 0.26 | -1.85 ± 0.28
GCGAAGCAAUAUUACGUAAC | -2.64 ± 0.14 | -1.44 ± 0.16
UGUCAGCAAUAUUACGUCAU | -1.79 ± 0.1 | -1.38 ± 0.14
GCACAGCAAUAUUACGCGAG | -2.41 ± 0.092 | -0.669 ± 0.084
CCAGAGCAAUAUUACGCCCU | -2.65 ± 0.48 | -2.07 ± 0.36
CAUCAGCAAUAUUACGACGA | -1.38 ± 0.16 | -0.863 ± 0.14
UUUCAGCAAUAUUACGCUGU | -3.52 ± 0.13 | -2.19 ± 0.21
CCGCAGCAAUAUUACGUACA | -2.89 ± 0.16 | -2.4 ± 0.23
CAUAAGCAAUAUUACGAGAC | -3.9 ± 0.37 | 
UAAGAGCAAUAUUACGCAUG | -2.75 ± 0.28 | -1.2 ± 0.23
ACCAAGCAAUAUUACGGGCG | -0.824 ± 0.048 | 0.12 ± 0.068
AGCUAGCAAUAUUACGAUCA | -2.01 ± 0.12 | -0.168 ± 0.11
UUGUAGCAAUAUUACGGUCA | -0.412 ± 0.17 | -0.486 ± 0.2
UUACAGCAAUAUUACGAGGC |  | -1.85 ± 0.3
CAGCAGCAAUAUUACGGAGU | -3.15 ± 0.12 | -2.49 ± 0.15
AGAUAGCAAUAUUACGAAUA | -2.76 ± 0.49 | -2.16 ± 0.48
UUCUAGCAAUAUUACGUCCG | -1.45 ± 0.25 | -0.81 ± 0.31
GCCUAGCAAUAUUACGCUUC | -2.42 ± 0.16 | -0.334 ± 0.13
AUAAAGCAAUAUUACGCCAU | -0.694 ± 0.095 | -0.176 ± 0.14
ACCAAGCAAUAUUACGGUUU | -3.14 ± 0.11 | -2.08 ± 0.1
UCUUAGCAAUAUUACGCUCU | -1.99 ± 0.24 | -1.61 ± 0.29
ACGUAGCAAUAUUACGAAAU | -2.28 ± 0.19 | -1.3 ± 0.26
CGGCAGCAAUAUUACGGAUC | -2.88 ± 0.27 | -2.04 ± 0.2
AUCUAGCAAUAUUACGAAAA |  | -2.38 ± 0.33
AUGAAGCAAUAUUACGUGCU | -1.69 ± 0.12 | -1.39 ± 0.12
CCGCAGCAAUAUUACGUUGC | -3.32 ± 0.14 | -2.7 ± 0.21

Sequence | self-splicing fitness (ln) (30 °C) | self-splicing fitness (ln) (37 °C)
UCACAGCAAUAUUACGUGUA | -2.2 ± 0.089 | -1.09 ± 0.088
GACAAGCAAUAUUACGUACA | -0.573 ± 0.055 | -0.314 ± 0.079
GUGGAGCAAUAUUACGAGCC |  | -1.59 ± 0.35
CGUUAGCAAUAUUACGCGAU | -2.89 ± 0.16 | -3.12 ± 0.32
UCUUAGCAAUAUUACGGAGG | -2.67 ± 0.34 | -2.17 ± 0.31
UCCGAGCAAUAUUACGGAGA | -1.83 ± 0.18 | -1.7 ± 0.27
GACUAGCAAUAUUACGACGG | -2.2 ± 0.24 | -1.78 ± 0.35
AGUCAGCAAUAUUACGCGCU | -3.02 ± 0.14 | -1.86 ± 0.21
GCCGAGCAAUAUUACGACGG | -3.78 ± 0.23 | -2.76 ± 0.28
ACUGAGCAAUAUUACGCCGA | -3.61 ± 0.47 | -1.33 ± 0.23
CGUGAGCAAUAUUACGGCAU | -2.59 ± 0.11 | -2.28 ± 0.16
GGCAAGCAAUAUUACGUGAA | -0.509 ± 0.091 | 0.184 ± 0.11
UGAAAGCAAUAUUACGUAGC | -3.52 ± 0.37 | -1.5 ± 0.36
UUGAAGCAAUAUUACGCCAG | -0.461 ± 0.14 | 0.214 ± 0.21
GGCUAGCAAUAUUACGCUAA | -0.801 ± 0.2 | -0.34 ± 0.15
CACCAGCAAUAUUACGCGUU | -2.15 ± 0.062 | -0.539 ± 0.067
UCUAAGCAAUAUUACGCAAU |  | -3.12 ± 0.43
CACAAGCAAUAUUACGUCAU | -3.45 ± 0.14 | -2.78 ± 0.15
UAAUAGCAAUAUUACGUCUC | -3.41 ± 0.26 | 
CCAAAGCAAUAUUACGUUUA | -3.26 ± 0.17 | -2.63 ± 0.17
CGCUAGCAAUAUUACGCGGU | -3.4 ± 0.26 | -2.39 ± 0.21
GGGCAGCAAUAUUACGCACA | -0.436 ± 0.23 | 0.448 ± 0.23
UAUAAGCAAUAUUACGGGUU | -3.04 ± 0.16 | -3.53 ± 0.23
AUGAAGCAAUAUUACGCCUA | 0.118 ± 0.087 | -0.0119 ± 0.14
CAGUAGCAAUAUUACGUAAG | 0.131 ± 0.069 | -0.159 ± 0.086
CGGAAGCAAUAUUACGAGCC | -2.13 ± 0.23 | -0.454 ± 0.22
